# Measurements reported in patent US12180485B2, “Repressible control of gene expression” (TRUSTEES OF BOSTON UNIVERSITY, priority 2020, dated 2024).
# B1: SEQ ID NO: 801: inducible system polypeptide, probably Table 20 (GID-GAI) (protein)
# chain: MLDLASLILIEKKKSFAKGMGVKSTLVSGSKVYMTTFAEGSDARLEKIVEGDSIRSVNEGEAFSAEMADKNAGYKIGNAKFSHPKGYAVVANNPLYTGPVQQDMLGLKETLEKRYFGESADGNDNICIQVIHNILDIEKILAEYITNAAYAVNNISGLDKDIIGFGKFSTVYTYDEFKDPEHHRAAFNNNDKLINAIKAQYDEFDNFLDNPRLGYFGQAFFSKEGRNYIINYGNECYDILALLSGLRHWVVHNNEEESRISRTWLYNLDKNLDNEYISTLNYLYDRITNELTNSFSKNSAANVNYIAETLGINPAEFAEQYFRFSIMKEQKNLGFNITKLREVMLDRKDMSEIRKNHKVFDSIRTKVYTMMDFVIYRYYIEEDAKVAAANKSLPDNEKSLSEKDIFVINLRGSFNDDQKDALYYDEANRIWRKLENIMHNIKEFRGNKTREYKKKDAPRLPRILPAGRDVSAFSKLMYALTMFLDGKEINDLLTTLINKFDNIQSFLKVMPLIGVNAKFVEEYAFFKDSAKIADELRLIKSFARMGEPIADARRAMYIDAIRILGTNLSYDELKSGGSGSGSSGGSGTMAASDEVNLIESRTVVPLNTWVLISNFKVAYNILRRPDGTFNRHLAEYLDRKVTANANPVDGVFSFDVLIDRRINLLSRVYRPAYADQEQPPSILDLEKPVDGDIVPVILFFHGGSFAHSSANSAIYDTLCRRLVGLCKCVVVSVNYRRAPENPYPCAYDDGWIALNWVNSRSWLKSKKDSKVHIFLAGDSSGGNIAHNVALRAGESGIDVLGNILLNPMFGGNERTESEKSLDGKYFVTVRDRDWYWKAFLPEGEDREHPACNPFSPRGKSLEGVSFPKSLVVVAGLDLIRDWQLAYAEGLKKAGQEVKLMHLEKATVGFYLLPNNNHFHNVMDEISAFVNAECLDLASLIL
# B2: SEQ ID NO: 804: inducible system polypeptide, probably Table 20 (GID-GAI) (protein)
# chain: MAPKKKRKVGIHGVPAAKRDHHHHHHQDKKTMMMNEEDDGNGMDELLAVLGYKVRSSEMADVAQKLEQLEVMMSNVQEDDLSQLATETVHYNPAELYTWLDSMLTDLNSGGSGSGSSGGSGTDKGKSVSEKVDALTKIITGMNYDQFDKKRSVIEDTGRENAEREKFKKIISLYLTVIYHILKNIVNINARYVIGFHCVERDAQLYKEKGYDINLKKLEEKGFSSVTKLCAGIDETAPDKRKDVEKEMAERAKESIDSLESANPKLYANYIKYSDEKKAEEFTRQINREKAKTALNAYLRNTKWNVIIREDLLRIDNKTCTLFRNKAVHLEVARYVHAYINDIAEVNSYFQLYHYIMQRIIMNERYEKSSGKVSEYFDAVNDEKKYNDRLLKLLCVPFGYCIPRFKNLSIEALFDRNEAAKFDKEKKKVSGNSGSGPKKKRKV
# B3: Split 263/264: RfxCas13d split at 263/264 (SEQ ID NOs: 14, 15) with GIB CID domains (protein)
# chain 1: IEKKKSFAKGMGVKSTLVSGSKVYMTTFAEGSDARLEKIVEGDSIRSVNEGEAFSAEMADKNAGYKIGNAKFSHPKGYAVVANNPLYTGPVQQDMLGLKETLEKRYFGESADGNDNICIQVIHNILDIEKILAEYITNAAYAVNNISGLDKDIIGFGKFSTVYTYDEFKDPEHHRAAFNNNDKLINAIKAQYDEFDNFLDNPRLGYFGQAFFSKEGRNYIINYGNECYDILALLSGLRHWVVHNNEEESRISRTWLYNLDKNL
# chain 2: DNEYISTLNYLYDRITNELTNSFSKNSAANVNYIAETLGINPAEFAEQYFRFSIMKEQKNLGFNITKLREVMLDRKDMSEIRKNHKVFDSIRTKVYTMMDFVIYRYYIEEDAKVAAANKSLPDNEKSLSEKDIFVINLRGSFNDDQKDALYYDEANRIWRKLENIMHNIKEFRGNKTREYKKKDAPRLPRILPAGRDVSAFSKLMYALTMFLDGKEINDLLTTLINKFDNIQSFLKVMPLIGVNAKFVEEYAFFKDSAKIADELRLIKSFARMGEPIADARRAMYIDAIRILGTNLSYDELKALADTFSLDENGNKLKKGKHGMRNFIINNVISNKRFHYLIRYGDPAHLHEIAKNEAVVKFVLGRIADIQKKQGQNGKNQIDRYYETCIGKDKGKSVSEKVDALTKIITGMNYDQFDKKRSVIEDTGRENAEREKFKKIISLYLTVIYHILKNIVNINARYVIGFHCVERDAQLYKEKGYDINLKKLEEKGFSSVTKLCAGIDETAPDKRKDVEKEMAERAKESIDSLESANPKLYANYIKYSDEKKAEEFTRQINREKAKTALNAYLRNTKWNVIIREDLLRIDNKTCTLFRNKAVHLEVARYVHAYINDIAEVNSYFQLYHYIMQRIIMNERYEKSSGKVSEYFDAVNDEKKYNDRLLKLLCVPFGYCIPRFKNLSIEALFDRNEAAKFDKEKKKVSGNS
# modifications: GIB CID domains attached
# B4: SEQ ID NO: 805: inducible system polypeptide, probably Table 20 (GID-GAI) (protein)
# chain: MLDLASLILIEKKKSFAKGMGVKSTLVSGSKVYMTTFAEGSDARLEKIVEGDSIRSVNEGEAFSAEMADKNAGYKIGNAKFSHPKGYAVVANNPLYTGPVQQDMLGLKETLEKRYFGESADGNDNICIQVIHNILDIEKILAEYITNAAYAVNNISGLDKDIIGFGKFSTVYTYDEFKDPEHHRAAFNNNDKLINAIKAQYDEFDNFLDNPRLGYFGQAFFSKEGRNYIINYGNECYDILALLSGLRHWVVHNNEEESRISRTWLYNLDKNLDNEYISTLNYLYDRITNELTNSFSKNSAANVNYIAETLGINPAEFAEQYFRFSIMKEQKNLGFNITKLREVMLDRKDMSEIRKNHKVFDSIRTKVYTMMDFVIYRYYIEEDAKVAAANKSLPDNEKSLSEKDIFVINLRGSFNDDQKDALYYDEANRIWRKLENIMHNIKEFRGNKTREYKKKDAPRLPRILPAGRDVSAFSKLMYALTMFLDGKEINDLLTTLINKFDNIQSFLKVMPLIGVNAKFVEEYAFFKDSAKIADELRLIKSFARMGEPIADARRAMYIDAIRILGTNLSYDELKALADTFSLDENGNKLKKGKHGMRNFIINNVISNKRFHYLIRYGDPAHLHEIAKNEAVVKFVLGRIADIQKKQGQNGKNQIDRYYETCIGKSGGSGSGSSGGSGTMAASDEVNLIESRTVVPLNTWVLISNFKVAYNILRRPDGTFNRHLAEYLDRKVTANANPVDGVFSFDVLIDRRINLLSRVYRPAYADQEQPPSILDLEKPVDGDIVPVILFFHGGSFAHSSANSAIYDTLCRRLVGLCKCVVVSVNYRRAPENPYPCAYDDGWIALNWVNSRSWLKSKKDSKVHIFLAGDSSGGNIAHNVALRAGESGIDVLGNILLNPMFGGNERTESEKSLDGKYFVTVRDRDWYWKAFLPEGEDREHPACNPFSPRGKSLEGVSFPKSLVVVAGLDLIRDWQLAYAEGLKKAGQEVKLMHLEKATVGFYLLPNNNHFHNVMDEISAFVNAECLDLASLIL
# B5: SEQ ID NO: 809: inducible system polypeptide, probably Table 20 (GID-GAI) (protein)
# chain: MAASDEVNLIESRTVVPLNTWVLISNFKVAYNILRRPDGTFNRHLAEYLDRKVTANANPVDGVFSFDVLIDRRINLLSRVYRPAYADQEQPPSILDLEKPVDGDIVPVILFFHGGSFAHSSANSAIYDTLCRRLVGLCKCVVVSVNYRRAPENPYPCAYDDGWIALNWVNSRSWLKSKKDSKVHIFLAGDSSGGNIAHNVALRAGESGIDVLGNILLNPMFGGNERTESEKSLDGKYFVTVRDRDWYWKAFLPEGEDREHPACNPFSPRGKSLEGVSFPKSLVVVAGLDLIRDWQLAYAEGLKKAGQEVKLMHLEKATVGFYLLPNNNHFHNVMDEISAFVNAECSGGSGSGSSGGSGTSYDELKALADTFSLDENGNKLKKGKHGMRNFIINNVISNKRFHYLIRYGDPAHLHEIAKNEAVVKFVLGRIADIQKKQGQNGKNQIDRYYETCIGKDKGKSVSEKVDALTKIITGMNYDQFDKKRSVIEDTGRENAEREKFKKIISLYLTVIYHILKNIVNINARYVIGFHCVERDAQLYKEKGYDINLKKLEEKGFSSVTKLCAGIDETAPDKRKDVEKEMAERAKESIDSLESANPKLYANYIKYSDEKKAEEFTRQINREKAKTALNAYLRNTKWNVIIREDLLRIDNKTCTLFRNKAVHLEVARYVHAYINDIAEVNSYFQLYHYIMQRIIMNERYEKSSGKVSEYFDAVNDEKKYNDRLLKLLCVPFGYCIPRFKNLSIEALFDRNEAAKFDKEKKKVSGNSGSGPKKKRKVPKKKRKV
# System: mCherry expression in HEK293 FT cells
# Assay: Inducible split RfxCas13d (GIB, RAP, ABA, Dano, GRZ CID domains; NES/NLS variants) mCherry knockdown, leakiness and inducibility
# Type: cell-based
# Settings: for performance in the tested conditions: inducible polypeptide systems of Tables 18-22
# Text: FIG. 6A-6C is a series of schematics and graphs showing that split RfxCas13d's reconstituted and functioned to knockdown mCherry expression in HEK293 FT cells FIG. 6A is a schematic showing split sites selected throughout RfxCas13d sequence. FIG. 6B is a bar graph showing mCherry expression under 4 conditions for gibberellin-inducible, rapalog-inducible, and abscisic acid-inducible inducible split Cas13d designs. In FIG. 6B and FIG. 6C, the left-right order of the bars for each split site is the same as the left-right order of the legend for each bar graph.
# FIG. 7A-7E is a series of schematics and graphs showing a functional and inducible split Cas13d design. FIG. 7A is a bar graph showing additional split sites selected in RfxCas13d and tested with GIB CID domains. […] In FIG. 7A and FIG. 7C, the left-right order of the bars for each split site is the same as the left-right order of the legend. FIG. 7B is a schematic showing the design to compartmentalize splits. Compartmentalizing moieties facilitates the reduction of leakiness. […] FIG. 7D is a schematic showing the experiment flow for testing reversibility of the inducible split Cas13d's.
# FIG. 8A-8B is a series of schematics and graphs showing that split RfxCas13d's reconstituted upon drug-induced dimerization and knocked down mCherry expression in HEK293 FT cells. FIG. 8A is a bar graph showing quantification of system performance. The left-right order of the bars for each split site is the same as the top-down order of the legend. […] System performance in leakiness score (left axis) and induced activity (right axis) by GIB, RAP, ABA, and Dano-inducible split Cas13d designs.
# FIG. 10A-10B is a series of schematics and graphs showing performance optimization through separating split Cas13d moieties in different cellular compartments. […] The left-right order of the bars for each bar graph is the same as the top-down order of the legend.
# FIG. 11 is a series of schematics and graphs showing the testing of reversed orientation (dark grey dots) of CID domains with respect to split Cas13d pieces against original orientations (light grey dots) designed for GIB, ABA, Dano, and GRZ inducible systems.
# [1] = RfxCas13d split with GIB CID domains
Molecule,performance in the tested conditions,knockdown efficiency [1],leaky off state activity [1]
B1,highest performance,,
B2,highest performance,,
B3,,over 60%,minimum leaky off state activity
B4,highest performance,,
B5,highest performance,,
